Test results as given in patent US20210238260A1.

Target: Antithrombin III (plasma purified human AT-III), in complex with unfractionated full-length heparin (human) (UniProt P01008)
Experiment: inhibition of FIXa by AT-III/UFH, residual activity on Mesyl-D-CHG-Gly-Arg-AMC

kapp (second-order rate constant for inhibition) [M⁻¹ s⁻¹] | Substance
6.3e+06 | FIXa R338E/E410N (from UniProt P00740 47-191; P00740 227-461) (enzyme)
31000 | FIXa K293E/R338E/R403E (from UniProt P00740 47-191; P00740 227-461) (enzyme)
16000 | FIXa R318E (from UniProt P00740 47-191; P00740 227-461) (enzyme)
47000 | FIXa K293A/R338A/R403A (from UniProt P00740 47-191; P00740 227-461) (enzyme)
1.6e+07 | BeneFIX Coagulation FIX (T148A), activated (FIXa) (from UniProt P00740 47-191; P00740 227-461) (enzyme)
61000 | FIXa D203N/F205T/R318Y (from UniProt P00740 47-191; P00740 227-461) (enzyme)
860000 | FIXa D203N/F205T/R338A (from UniProt P00740 47-191; P00740 227-461) (enzyme)
1.2e+06 | FIXa K228N/R318Y (from UniProt P00740 47-191; P00740 227-461) (enzyme)
68000 | FIXa R338E/R403E (from UniProt P00740 47-191; P00740 227-461) (enzyme)
2.4e+07 | Catalyst Biosciences WT FIXa (from UniProt P00740 47-191; P00740 227-461) (enzyme)
42000 | FIXa K228N/R338E/R403E (from UniProt P00740 47-191; P00740 227-461) (enzyme)
4.8e+06 | FIXa R403E/E410N (from UniProt P00740 47-191; P00740 227-461) (enzyme)
360000 | FIXa D203N/F205T/R338E (from UniProt P00740 47-191; P00740 227-461) (enzyme)
210000 | FIXa D104N/K106S/R318Y/R338E/E410N (from UniProt P00740 47-191; P00740 227-461) (enzyme)
2000 | FIXa D203N/F205T/R338E/R403E (from UniProt P00740 47-191; P00740 227-461) (enzyme)
17000 | FIXa R318A/R403A (from UniProt P00740 47-191; P00740 227-461) (enzyme)
270000 | FIXa R338E (from UniProt P00740 47-191; P00740 227-461) (enzyme)
1.4e+06 | FIXa R403A (from UniProt P00740 47-191; P00740 227-461) (enzyme)
1.2e+06 | FIXa K293E (from UniProt P00740 47-191; P00740 227-461) (enzyme)
2.7e+06 | FIXa D85N/D203N/F205T (from UniProt P00740 47-191; P00740 227-461) (enzyme)

The remaining lines, values behind:

Substance | kapp (second-order rate constant for inhibition) [M⁻¹ s⁻¹]
FIXa R318Y/R338E/E410N (from UniProt P00740 47-191; P00740 227-461) (enzyme) | 280000
FIXa R318Y/E410N (from UniProt P00740 47-191; P00740 227-461) (enzyme) | 1.1e+06
FIXa N260S (from UniProt P00740 47-191; P00740 227-461) (enzyme) | 1.1e+06
FIXa R318Y/R338E/R403E (from UniProt P00740 47-191; P00740 227-461) (enzyme) | 1200
FIXa R312Y (from UniProt P00740 47-191; P00740 227-461) (enzyme) | 230000
FIXa T148A (from UniProt P00740 47-191; P00740 227-461) (enzyme) | 1.6e+07
FIXa D203N/F205T (from UniProt P00740 47-191; P00740 227-461) (enzyme) | 810000
FIXa Y155F/R338E/R403E/E410N (from UniProt P00740 47-191; P00740 227-461) (enzyme) | 32000
FIXa D104N/K106S/N260S (from UniProt P00740 47-191; P00740 227-461) (enzyme) | 7e+06
FIXa R338A/R403A (from UniProt P00740 47-191; P00740 227-461) (enzyme) | 840000
FIXa Y155F/R318Y/R338E/R403E (from UniProt P00740 47-191; P00740 227-461) (enzyme) | 1000
FIXa D203N/F205T/E410N (from UniProt P00740 47-191; P00740 227-461) (enzyme) | 2e+06
FIXa D203N/F205T/K228N (from UniProt P00740 47-191; P00740 227-461) (enzyme) | 1.1e+06
FIXa R318A (from UniProt P00740 47-191; P00740 227-461) (enzyme) | 690000
FIXa R403E (from UniProt P00740 47-191; P00740 227-461) (enzyme) | 110000
FIXa R338E/R403E/E410N (from UniProt P00740 47-191; P00740 227-461) (enzyme) | 130000
FIXa K293A/R403A (from UniProt P00740 47-191; P00740 227-461) (enzyme) | 81000
FIXa R318Y (from UniProt P00740 47-191; P00740 227-461) (enzyme) | 640000

Target: plasma purified human AT-III (antithrombin III) in complex with unfractionated heparin (human) (UniProt P01008)
Experiment: residual FIXa activity on Mesyl-D-CHG-Gly-Arg-AMC after timed incubation with AT-III/UFH (0-500 nM AT-III, 1 uM UFH); kapp from K0.5

kapp (apparent second-order rate constant for inhibition) [M⁻¹ s⁻¹] | Substance
1100 | FIXa-Y155F/K228N/K247N/N249S/R318Y/R338E/R403E/E410N (from UniProt P00740 47-191; P00740 227-461) (enzyme)
32000 | FIXa-R318Y/R338E/T343R/R403E/E410N (from UniProt P00740 47-191; P00740 227-461) (enzyme)
720000 | FIXa-R318Y/R338E/E410S (from UniProt P00740 47-191; P00740 227-461) (enzyme)
9100 | FIXa-D104N/K106S/R318Y/R338E/T343R/R403E/E410N (from UniProt P00740 47-191; P00740 227-461) (enzyme)
1100 | FIXa-R318Y/R338E/N346D/R403E/E410N (from UniProt P00740 47-191; P00740 227-461) (enzyme)
1.3e+06 | FIXa-T343R/N346D (from UniProt P00740 47-191; P00740 227-461) (enzyme)

Continued, substance first:

Substance | kapp (apparent second-order rate constant for inhibition) [M⁻¹ s⁻¹]
FIXa-N260S/R318Y/R338E/R403E/E410N (from UniProt P00740 47-191; P00740 227-461) (enzyme) | 4400
FIXa-K247N/N249S/R338E/R403E/E410N (from UniProt P00740 47-191; P00740 227-461) (enzyme) | 21000
FIXa-Y155F/R318Y/R338E/N346D/R403E/E410N (from UniProt P00740 47-191; P00740 227-461) (enzyme) | 1600
